In article PMC5557760:

Target: T1, PtpA (Mycobacterium tuberculosis) (UniProt P9WIA1)
T1 sequence: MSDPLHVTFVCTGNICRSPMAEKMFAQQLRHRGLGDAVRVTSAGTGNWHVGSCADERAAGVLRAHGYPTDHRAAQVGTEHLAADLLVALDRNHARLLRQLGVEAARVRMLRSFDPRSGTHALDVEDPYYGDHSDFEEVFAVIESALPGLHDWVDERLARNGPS
Assay: competition
Conditions: EMSA: 10 ug PtpA, 10 nM biotin-labeled DNA, Beyotime GS009 binding buffer (salt, pH not stated), 20 min, room temperature, 15% native PAGE

With “CCTTAAAACAAAAGACATGAAAAGATAATAAGAAAAAAGTGCCGCAACTATTATAGAAAAACACTTGGCAGCCTGCTTCAGCCCAAGCTGAGGCCACCTCTAGCCTCTGCTAAAGCCCCCCACTCCCAATGGTCCCCGCCAACCGGATAA (double strand) [GADD45A promoter -250 to -100, unlabeled negative competitor]” the binding was “no binding”.
